Source: patent US20230405046A1 (published 2023)
One block for each binder: values may come before it.

Legend:
[1] = target: T1, MAGE-A3 peptide on HLA-DRB1*13:02 (human); test: cytokine release
T1 peptide: TSYVKVLHHMVKISG

[2] = target: T2, MAGE-A3 peptide on HLA-DRB1*11:01 (human); test: cytokine release
T2 peptide: TSYVKVLHHMVKISG

[3] = target: T3, NY-ESO-1 peptide on HLA-A*02:01 (human); test: killing
T3 peptide: SLLMWITQC

[4] = target: T4, KRAS Q61H peptide on HLA-A*01:01 (human); test: IFNγ ELISPOT; peptide titration (1 µM to 0.1 nM) on HLA-A*01:01-transfected K562; full-length, on cells
T4 peptide: ILDTAGHEEY

[5] = target: T5, MAGE-A3 peptide on HLA-A*01:01 (human); test: cytokine release
T5 peptide: EVDPIGHLY

[6] = target: NY-ESO-1 peptide on HLA-B*40:01 (human); test: killing
[7] = target: T6, NY-ESO-1 peptide on HLA-C*03:04 (human); test: multimer staining
T6 peptide: FATPMEAEL

[8] = target: T5, MAGE-A3 peptide on HLA-A*01:01; test: multimer staining
[9] = target: T7, NY-ESO-1 peptide on HLA-B*35:03 (human); test: killing
T7 peptide: MPFATPMEAEL

[10] = target: T8, NY-ESO-1 peptide on HLA-B*35:03 (human); test: killing
T8 peptide: MPFATPMEA

binding result [1]: recognises
B1: TCRCD4-MA3#5 (TCR, V domains shown)
Valpha: AQSVTQLGSHVSVSEGALVLLRCNYSSSVPPYLFWYVQYPNQGLQLLLKYTSAATLVKGINGFEAEFKKSETSFHLTKPSAHMSDAAEYFCAVSDGGATNKLIFGTGTLLAVQP
Vbeta: DGGITQSPKYLFRKEGQNVTLSCEQNLNHDAMYWYRQDPGQGLRLIYYSQIVNDFQKGDIAEGYSVSREKKESFPLTVTSAQKNPTAFYLCASSSGGRASFTQYFGPGTRLTVL

binding result [2]: recognises
B2: TCRCD4-MA3#9 (TCR, V domains shown)
Valpha: GNSVTQMEGPVTLSEEAFLTINCTYTATGYPSLFWYVQYPGEGLQLLLKATKADDKGSNKGFEATYRKETTSFHLEKGSVQVSDSAVYFCALSDPNNQGGKLIFGQGTELSVKP
Vbeta: DTAVSQTPKYLVTQMGNDKSIKCEQNLGHDTMYWYKQDSKKFLKIMFSYNNKELIINETVPNRFSPKSPDKAHLNLHINSLELGDSAVYFCASSQVRGTTEAFFGQGTRLTVV

B3: TCRCD8-EL28-NYE #2 (TCR, V domains shown)
Valpha: SQELEQSPQSLIVQEGKNLTINCTSSKTLYGLYWYKQKYGEGLIFLMMLQKGGEEKSHEKITAKLDEKKQQSSLHITASQPSHAGIYLCGADMLDYQKVTFGIGTKLQVIP
Vbeta: DAGVIQSPRHEVTEMGQEVTLRCKPISGHDYLFWYRQTMMRGLELLIYFNNNVPIDDSGMPEDRFSAKMPNASFSTLKIQPSEPRDSAVYFCASRRGGSEQYFGPGTRLTVT
binding result [3]: recognises

minimal recognised peptide concentration [4]: 10 nM
B4: TCRCD8-EL8-LM7 #1 (TCR, V domains shown)
Valpha: AQKITQTQPGMFVQEKEAVTLDCTYDTSDPSYGLFWYKQPSSGEMIFLIYQGSYDQQNATEGRYSLNFQKARKSANLVISASQLGDSAMYFCAMREGQDSSYKLIFGSGTRLLVRP
Vbeta: DSGVTQTPKHLITATGQRVTLRCSPRSGDLSVYWYQQSLDQGLQFLIQYYNGEERAKGNILERFSAQQFPDLHSELNLSSLELGDSALYFCASSVLGPNTEAFFGQGTRLTVV

binding result [5]: recognises
B5: TCRCD8-C1-40-MA3 #1 (TCR, V domains shown)
Valpha: GQQLNQSPQSMFIQEGEDVSMNCTSSSIFNTWLWYKQEPGEGPVLLIALYKAGELTSNGRLTAQFGITRKDSFLNISASIPSDVGIYFCAGQLRYGGATNKLIFGTGTLLAVQP
Vbeta: DSGVTQTPKHLITATGQRVTLRCSPRSGDLSVYWYQQSLDQGLQFLIHYYNGEERAKGNILERFSAQQFPDLHSELNLSSLELGDSALYFCASSVGGASYEQYFGPGTRLTVT

B6: TCRCD8-53-02-NY #109 (TCR, V domains shown)
Valpha: GQQVMQIPQYQHVQEGEDFTTYCNSSTTLSNIQWYKQRPGGHPVFLIQLVKSGEVKKQKRLTFQFGEAKKNSSLHITATQTTDVGTYFCADNAGNMLTFGGGTRLMVKP
Vbeta: GAVVSQHPSWVICKSGTSVKIECRSLDFQATTMFWYRQFPKQSLMLMATSNEGSKATYEQGVEKDKFLINHASLTLSTLTVTSAHPEDSSFYICSARDPGRNYGYTFGSGTRLTVV
binding result [6]: recognises

B7: TCRCD8-53-02-NY #110 (TCR, V domains shown)
Valpha: GQQVMQIPQYQHVQEGEDFTTYCNSSTTLSNIQWYKQRPGGHPVFLIQLVKSGEVKKQKRLTFQFGEAKKNSSLHITATQTTDVGTYFCGDNAGNMLTFGGGTRLMVKP
Vbeta: GAVVSQHPSWVICKSGTSVKIECRSLDFQATTMFWYRQFPKQSLMLMATSNEGSKATYEQGVEKDKFLINHASLTLSTLTVTSAHPEDSSFYICSARDEDRPYGYTFGSGTRLTVV
binding result [6]: recognises

minimal recognised peptide concentration [4]: 10 nM
B8: TCRCD8-EL8-LM7 #4 (TCR, V domains shown)
Valpha: AQKVTQAQTEISVVEKEDVTLDCVYETRDTTYYLFWYKQPPSGELVFLIRRNSFDEQNEISGRYSWNFQKSTSSFNFTITASQVVDSAVYFCALSNAGGTSYGKLTFGQGTILTVHP
Vbeta: EAQVTQNPRYLITVTGKKLTVTCSQNMNHEYMSWYRQDPGLGLRQIYYSMNVEVTDKGDVPEGYKVSRKEKRNFPLILESPSPNQTSLYFCASSRRLPPPYGYTFGSGTRLTVV

minimal recognised peptide concentration [4]: 10 nM
B9: TCRCD8-EL8-LM7 #7 (TCR, V domains shown)
Valpha: AQKVTQAQTEISVVEKEDVTLDCVYETRDTTYYLFWYKQPPSGELVFLIRRNSFDEQNEISGRYSWNFQKSTSSFNFTITASQVVDSAVYFCALSESSNTGKLIFGQGTTLQVKP
Vbeta: EAQVTQNPRYLITVTGKKLTVTCSQNMNHEYMSWYRQDPGLGLRQIYYSMNVEVTDKGDVPEGYKVSRKEKRNFPLILESPSPNQTSLYFCASSRREPPPYGYTFGSGTRLTVV

binding result [7]: recognises
B10: TCRCD8-53-02-NY #107 (TCR, V domains shown)
Valpha: GQNIDQPTEMTATEGAIVQINCTYQTSGFNGLFWYQQHAGEAPTFLSYNVLDGLEEKGRFSSFLSRSKGYSYLLLKELQMKDSASYLCAVRLGDAGNMLTFGGGTRLMVKP
Vbeta: DSGVTQTPKHLITATGQRVTLRCSPRSGDLSVYWYQQSLDQGLQFLIQYYNGEERAKGNILERFSAQQFPDLHSELNLSSLELGDSALYFCASSVGRGMNTEAFFGQGTRLTVV

binding result [8]: recognises
B11: TCRCD8-MA3#10 (TCR, V domains shown)
Valpha: RKEVEQDPGPFNVPEGATVAFNCTYSNSASQSFFWYRQDCRKEPKLLMSVYSSGNEDGRFTAQLNRASQYISLLIRDSKLSDSATYLCVVNERNSGYALNFGKGTSLLVTP
Vbeta: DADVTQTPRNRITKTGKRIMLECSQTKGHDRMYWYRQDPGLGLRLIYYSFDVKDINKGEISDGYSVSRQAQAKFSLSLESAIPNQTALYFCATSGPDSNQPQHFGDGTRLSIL

B12: TCRCD8-NY#102 (TCR, V domains shown)
Valpha: AQSVAQPEDQVNVAEGNPLTVKCTYSVSGNPYLFWYVQYPNRGLQFLLKYITGDNLVKGSYGFEAEFNKSQTSFHLKKPSALVSDSALYFCAVRDIEVVNAGNMLTFGGGTRLMVKP
Vbeta: ETGVTQSPTHLIKTRGQQVTLRCSSQSGHNTVSWYQQALGQGPQFIFQYYREEENGRGNFPPRFSGLQFPNYSSELNVNALELDDSALYLCASTDRVRYEQFFGPGTRLTVL
binding result [9]: recognises

B13: TCRCD8-NY#99 (TCR, V domains shown)
Valpha: KQEVTQIPAALSVPEGENLVLNCSFTDSAIYNLQWFRQDPGKGLTSLLLIQSSQREQTSGRLNASLDKSSGRSTLYIAASQPGDSATYLCAPNDYKLSFGAGTTVTVRA
Vbeta: KAGVTQTPRYLIKTRGQQVTLSCSPISGHRSVSWYQQTPGQGLQFLFEYFSETQRNKGNFPGRFSGRQFSNSRSEMNVSTLELGDSALYLCASSFSSDNEQFFGPGTRLTVL
binding result [9]: recognises

binding result [8]: recognises
B14: TCRCD8-MA3#7 (TCR, V domains shown)
Valpha: ELKVEQNPLFLSMQEGKNYTIYCNYSTTSDRLYWYRQDPGKSLESLFVLLSNGAVKQEGRLMASLDTKARLSTLHITAAVHDLSATYFCAEPNTDKLIFGTGTRLQVFP
Vbeta: DAMVIQNPRYQVTQFGKPVTLSCSQTLNHNVMYWYQQKSSQAPKLLFHYYDKDFNNEADTPDNFQSRRPNTSFCFLDIRSPGLGDTAMYLCATNYDRGYEQYFGPGTRLTVT

binding result [8]: recognises
B15: TCRCD8-MA3#8 (TCR, V domains shown)
Valpha: QKEVEQNSGPLSVPEGAIASLNCTYSDRGSQSFFWYRQYSGKSPELIMFIYSNGDKEDGRFTAQLNKASQYVSLLIRDSQPSDSATYLCAVWATGNQFYFGTGTSLTVIP
Vbeta: DAMVIQNPRYQVTQFGKPVTLSCSQTLNHNVMYWYQQKSSQAPKLLFHYYDKDFNNEADTPDNFQSRRPNTSFCFLDIRSPGLGDTAMYLCATSFDRGYEQYFGPGTRLTVT

B16: TCRCD8-NY#100 (TCR, V domains shown)
Valpha: SQQGEEDPQALSIQEGENATMNCSYKTSINNLQWYRQNSGRGLVHLILIRSNEREKHSGRLRVTLDTSKKSSSLLITASRAADTASYFCATDSNDYKLSFGAGTTVTVRA
Vbeta: GAGVSQSPRYKVTKRGQDVALRCDPISGHVSLYWYRQALGQGPEFLTYFNYEAQQDKSGLPNDRFSAERPEGSISTLTIQRTEQRDSAMYRCASSWGGELFFGEGSRLTVL
binding result [9]: recognises

B17: TCRCD8-NY#101 (TCR, V domains shown)
Valpha: AQTVTQSQPEMSVQEAETVTLSCTYDTSESDYYLFWYKQPPSRQMILVIRQEAYKQQNATENRFSVNFQKAAKSFSLKISDSQLGDAAMYFCAYRSDAGGTSYGKLTFGQGTILTVHP
Vbeta: ETGVTQSPTHLIKTRGQQVTLRCSSQSGHNTVSWYQQALGQGPQFIFQYYREEENGRGNFPPRFSGLQFPNYSSELNVNALELDDSALYLCASSPRTGGAGNTIYFGEGSWLTVV
binding result [10]: recognises
